Measurements reported in patent US20210221875A1 (Chugai, published 2021).
Changes are numbered by the printed parent chain.

T1: human CD3ed-Fc (human)
T1 construct: human CD3 epsilon and human CD3 delta linked to a human antibody constant region, biotinylated in culture with BirA; also called CD3 epsilon delta heterodimer fused with the antibody constant region; biotin-labeled human CD3ed-Fc
T1 chain 1: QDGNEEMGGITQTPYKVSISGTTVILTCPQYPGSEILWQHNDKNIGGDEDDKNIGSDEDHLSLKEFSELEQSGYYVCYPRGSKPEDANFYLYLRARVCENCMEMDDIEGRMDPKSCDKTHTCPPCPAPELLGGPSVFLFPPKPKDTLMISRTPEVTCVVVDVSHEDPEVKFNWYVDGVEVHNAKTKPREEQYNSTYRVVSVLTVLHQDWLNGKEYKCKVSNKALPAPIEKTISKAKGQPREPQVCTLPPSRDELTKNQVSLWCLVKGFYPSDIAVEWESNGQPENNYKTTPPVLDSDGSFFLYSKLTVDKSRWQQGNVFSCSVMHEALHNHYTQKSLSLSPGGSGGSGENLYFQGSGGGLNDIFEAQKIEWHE
T1 chain 2: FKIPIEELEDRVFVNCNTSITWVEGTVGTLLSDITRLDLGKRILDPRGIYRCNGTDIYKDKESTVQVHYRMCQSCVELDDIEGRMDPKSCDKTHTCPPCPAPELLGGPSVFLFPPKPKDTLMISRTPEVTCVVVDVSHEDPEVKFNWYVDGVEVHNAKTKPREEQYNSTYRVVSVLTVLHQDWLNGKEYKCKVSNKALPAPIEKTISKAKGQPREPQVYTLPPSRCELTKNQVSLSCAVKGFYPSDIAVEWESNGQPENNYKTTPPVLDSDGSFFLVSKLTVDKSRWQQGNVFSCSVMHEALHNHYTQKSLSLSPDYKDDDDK

B1: hA2R3p.038-G1mISHI01/VK1.39-k0MT (antibody, human IgG1, kappa, V domains shown)
VH: QLQLVESGGGLVQAGGSLRLSCAASGRTFRTYAMGWFRQAPGKEREFVSSISGSGGSKIYADSVKGRFTISRDNAKDTVNLQMNSLKPEDTAVYYCAVARGYYGTMASDPGLYDYWGQGTQVTVSS
VL: DIQMTQSPSSLSASVGDRVTITCRASQSISSYLNWYQQKPGKAPKLLIYAASSLQSGVPSRFSGSGSGTDFTLTISSLQPEDFATYYCLQFDSYPLTFGGGTKVEIKR
B2: bC3edL1R1N160H01-G1mISHI01/VK1-39-k0MT (antibody, human IgG1, kappa, V domains shown)
VH: QVQLVESGGGLVQPGGSLRLSCAASGFTFNHCWMYWVRQAPGKGLEWVSVINTDGGSAYYADSVKGRFTISRDNAKNTLYLQMNSLKSEDTAVYYCARDWAPLVDYYYGMDYWGKGTLVTVSG
VL: B1 VL
B3: bC3edL1R1N161H01-G1mISHI01/VK1-39-k0MT (antibody, human IgG1, kappa, V domains shown)
VH: QVQLVESGGGLVQPGGSLRLSCAASGFPFDNYVMSWVRQAPGKGLEWISAISWNGGSTYYAESMKGRFTISRDNAKSTLYLQMNSLKSEDTAVYYCAKEPRVYYSGSPDYWGQGTQVTVSG
VL: B1 VL
notes: uncleaved
B4: bC3edL1R1N164H01-G1mISHI01/VK1-39-k0MT (antibody, human IgG1, kappa, V domains shown)
VH: QVQLVESGGGLVQPGGSLRLSCAASGFTFDVYGMSWVRHSPGKGLEWVSTINWNGGSTYYAESMKGRFTISRDNAKNTVYLQMNSLKPEDTAVYYCAKFAPWDGDMEWGQGTQVTVSG
VL: B1 VL
notes: uncleaved
B5: PX02-R4_017-G1mISHI01/VK1-39-k0MT (antibody, human IgG1, kappa, V domains shown)
VH: QVQLVESGGGLVQPGGSLRLSCTASGISFSISTMGWYRQAPGKQRELVATITSGGEAYYANSMKDRFTISRDNAENTVYLQMNRLKPEDSAVYYCNTKFPWSTDWNARGQGTQVTVSG
VL: B1 VL
notes: uncleaved; light chain printed once for the five molecules
B6: PX03-R2_006-G1mISHI01/VK1-39-k0MT (antibody, human IgG1, kappa, V domains shown)
VH: B5 VH with V2L, T52A, M63V, D65G
VL: B1 VL
notes: as for B5
B7: PX03-R4_009-G1mISHI01/VK1-39-k0MT (antibody, human IgG1, kappa, V domains shown)
VH: B5 VH with V2L, T52A, M63V, D65G, D72E, N73Y, Y79F
VL: B1 VL
notes: as for B5

Legend:
[1] = biological target: T2, Human aggrecan G1-IGD-G2 domain with Flag-tag on its C-terminus (human, UniProt P16112 17-675); assay: BLI (Octet RED), biotin-labeled human aggrecan G1-IGD-G2-Flag on streptavidin sensor, 27 C
T2 construct: used unlabelled as Biacore analyte; also called human aggrecan G1-IGD-G2-Flag; human Aggrecan G1G2 flag

human CD3ed-Fc = biological target: T1, human CD3ed-Fc; assay: BLI (Octet RED), human CD3ed-Fc on the sensor
biotinylated plexin A1 = biological target: T3, biotinylated plexin A1 (human, UniProt Q9UIW2 27-1253, biotin on the AviTag sequence (BirA co-expression)); assay: BLI (Octet), in the same way as in Example 3
T3 construct: extracellular region of plexin A1 linked to AviTag and FLAG tag; also called biotin-labeled human plexin A1; human plexin A1
T3 sequence (Q9UIW2 other isoform, or with tags, fused parts or gaps limits assumed): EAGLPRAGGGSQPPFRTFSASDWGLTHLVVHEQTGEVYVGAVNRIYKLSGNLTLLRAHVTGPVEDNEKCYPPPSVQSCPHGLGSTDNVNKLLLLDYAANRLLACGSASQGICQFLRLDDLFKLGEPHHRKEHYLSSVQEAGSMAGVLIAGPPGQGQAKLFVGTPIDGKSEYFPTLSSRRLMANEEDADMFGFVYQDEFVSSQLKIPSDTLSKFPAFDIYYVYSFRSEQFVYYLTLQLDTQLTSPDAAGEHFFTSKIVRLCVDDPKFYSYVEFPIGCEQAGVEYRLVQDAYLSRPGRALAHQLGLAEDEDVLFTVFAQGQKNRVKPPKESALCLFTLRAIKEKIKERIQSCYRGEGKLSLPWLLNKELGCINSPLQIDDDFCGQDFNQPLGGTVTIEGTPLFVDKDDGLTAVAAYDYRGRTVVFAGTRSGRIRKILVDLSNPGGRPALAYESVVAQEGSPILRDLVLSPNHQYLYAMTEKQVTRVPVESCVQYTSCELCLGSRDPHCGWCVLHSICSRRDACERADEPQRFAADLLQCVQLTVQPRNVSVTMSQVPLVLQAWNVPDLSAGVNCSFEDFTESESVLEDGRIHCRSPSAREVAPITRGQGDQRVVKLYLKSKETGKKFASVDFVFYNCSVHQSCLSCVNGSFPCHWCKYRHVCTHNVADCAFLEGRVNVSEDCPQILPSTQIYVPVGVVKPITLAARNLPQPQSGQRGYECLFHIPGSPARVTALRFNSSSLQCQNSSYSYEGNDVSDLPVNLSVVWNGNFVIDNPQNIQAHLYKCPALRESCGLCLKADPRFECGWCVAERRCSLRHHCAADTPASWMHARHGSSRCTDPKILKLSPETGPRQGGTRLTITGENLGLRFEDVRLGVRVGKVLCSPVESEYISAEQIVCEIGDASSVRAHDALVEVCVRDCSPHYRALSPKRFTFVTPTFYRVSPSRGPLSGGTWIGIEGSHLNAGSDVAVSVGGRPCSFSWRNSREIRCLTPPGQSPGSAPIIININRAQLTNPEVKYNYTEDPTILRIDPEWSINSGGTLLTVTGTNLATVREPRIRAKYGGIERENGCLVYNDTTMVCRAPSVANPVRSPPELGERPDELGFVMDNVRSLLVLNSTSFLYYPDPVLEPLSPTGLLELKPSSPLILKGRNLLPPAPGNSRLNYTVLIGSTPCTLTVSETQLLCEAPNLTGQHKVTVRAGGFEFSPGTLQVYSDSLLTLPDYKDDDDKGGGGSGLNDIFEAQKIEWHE

Binder | binding result (human CD3ed-Fc) | binding result (biotinylated plexin A1) | other results
B1 |  |  | binding result [1]: binds
B2 | no binding |  | 
B3 | no binding |  | 
B4 | no binding |  | 
B5 |  | no binding | 
B6 |  | no binding | 
B7 |  | no binding | 
